Reference: paper doi:10.1101/2023.08.10.552813

Experiments:
Experiment in all cases: SPR
[1] = molecular target: mouse Interleukin 33 (residues 112-270) (mouse)
[2] = molecular target: HpARI_CCP2/3 (HpARI with CCP1 truncated) (Heligmosomoides polygyrus bakeri)
[3] = molecular target: Heligmosomoides polygyrus Alarmin Release Inhibitor (HpARI), full-length (Heligmosomoides polygyrus bakeri)
[4] = molecular target: HpARI-LD (full-length HpARI with residues 180-188 of the CCP3 loop deleted) (Heligmosomoides polygyrus bakeri)
[5] = molecular target: HpARI_CCP1/2 (HpARI with CCP3 truncated) (Heligmosomoides polygyrus bakeri)

Chain of HpARI_CCP2/3 (HpARI with CCP1 truncated) (Heligmosomoides polygyrus bakeri) (A0A3P7XL18 63-297): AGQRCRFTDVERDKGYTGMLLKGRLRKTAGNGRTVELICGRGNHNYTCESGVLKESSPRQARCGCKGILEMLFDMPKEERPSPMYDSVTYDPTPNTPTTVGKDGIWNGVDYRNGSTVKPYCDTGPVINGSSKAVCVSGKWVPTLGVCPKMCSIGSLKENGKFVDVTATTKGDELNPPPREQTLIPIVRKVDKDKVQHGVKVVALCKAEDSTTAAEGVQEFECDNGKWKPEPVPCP

With “HpARI-LD (full-length HpARI with residues 180-188 of the CCP3 loop deleted) (natural protein)” the percent reduction of mIL-33 binding against HpARI [1] was 60% and the percent reduction of mIL-33 binding to ST2-Fc [1] was 25%.

mouse IL-33 R159A (ligand) showed a fold reduction in binding affinity against wild-type mIL-33 [2] of 1000 fold.

“mouse Interleukin 33 (residues 112-270) (ligand)” showed a Kd [3] of 0.048 nM, a Kd [4] of 45 nM and a Kd [5] of 49 nM. For the same substance, the koff, fold over that of full-length HpARI [5] was > 100 fold and the Kd [2] was 4 nM.
